Results reported in paper PMC6025902 (Science Advances, 2018).

Target: monomeric amyloid-β peptide 1–42 (Aβ42) (human, UniProt P05067 672-713)
Experiment: ITC

Kd: 590 ± 230 nM
dH: -0.947 ± 0.0295 kcal/mol
stoichiometry N: 2.37 ± 0.07
B1: S100B protein (natural protein)
chain: MSELEKAMVALIDVFHQYSGREGDKHKLKKSELKELINNELSHFLEEIKEQEVVDKVMETLDNDGDGECDFQEFMAFVAMVTTACHEFFEHE
